Experiments:
[1] = target: T1, recombinant biotinylated CD71 extracellular domain (Sino Biologics) with an N-terminal 6His tag (human, UniProt P02786 89-760, biotinylated (sites not given)); experiment: screening ELISA
T1 construct: extracellular domain; also called hCD71; huCD71

[2] = target: T1, recombinant biotinylated CD71 …; experiment: screening ELISA, ratio
[3] = target: CD71 on SK-BR-3 cells (human, UniProt P02786 1-760); experiment: cell-based or functional assay
CD71 on SK-BR-3 cells, sequence (P02786 whole entry): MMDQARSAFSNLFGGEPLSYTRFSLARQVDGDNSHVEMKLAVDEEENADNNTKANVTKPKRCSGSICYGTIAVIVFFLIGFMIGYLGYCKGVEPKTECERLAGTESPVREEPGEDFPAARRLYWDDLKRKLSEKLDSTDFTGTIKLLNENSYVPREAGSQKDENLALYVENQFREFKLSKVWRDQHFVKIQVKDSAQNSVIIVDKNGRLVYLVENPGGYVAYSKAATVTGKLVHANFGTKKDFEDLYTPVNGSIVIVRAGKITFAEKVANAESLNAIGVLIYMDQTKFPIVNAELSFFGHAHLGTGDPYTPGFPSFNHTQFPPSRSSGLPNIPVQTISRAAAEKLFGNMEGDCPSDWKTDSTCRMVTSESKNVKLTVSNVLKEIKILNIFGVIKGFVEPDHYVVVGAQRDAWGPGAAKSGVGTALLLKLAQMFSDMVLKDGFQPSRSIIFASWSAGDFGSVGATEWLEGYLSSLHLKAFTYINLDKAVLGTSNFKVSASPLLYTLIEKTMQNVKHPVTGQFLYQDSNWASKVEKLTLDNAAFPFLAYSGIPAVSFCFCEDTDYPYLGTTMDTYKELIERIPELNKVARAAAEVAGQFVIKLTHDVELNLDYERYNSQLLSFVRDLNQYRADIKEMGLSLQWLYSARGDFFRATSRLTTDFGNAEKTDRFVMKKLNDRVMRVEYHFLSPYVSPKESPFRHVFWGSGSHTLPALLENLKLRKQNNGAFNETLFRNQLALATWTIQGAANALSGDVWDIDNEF

T1 sequence (P02786 other isoform, or with tags, fused parts or gaps): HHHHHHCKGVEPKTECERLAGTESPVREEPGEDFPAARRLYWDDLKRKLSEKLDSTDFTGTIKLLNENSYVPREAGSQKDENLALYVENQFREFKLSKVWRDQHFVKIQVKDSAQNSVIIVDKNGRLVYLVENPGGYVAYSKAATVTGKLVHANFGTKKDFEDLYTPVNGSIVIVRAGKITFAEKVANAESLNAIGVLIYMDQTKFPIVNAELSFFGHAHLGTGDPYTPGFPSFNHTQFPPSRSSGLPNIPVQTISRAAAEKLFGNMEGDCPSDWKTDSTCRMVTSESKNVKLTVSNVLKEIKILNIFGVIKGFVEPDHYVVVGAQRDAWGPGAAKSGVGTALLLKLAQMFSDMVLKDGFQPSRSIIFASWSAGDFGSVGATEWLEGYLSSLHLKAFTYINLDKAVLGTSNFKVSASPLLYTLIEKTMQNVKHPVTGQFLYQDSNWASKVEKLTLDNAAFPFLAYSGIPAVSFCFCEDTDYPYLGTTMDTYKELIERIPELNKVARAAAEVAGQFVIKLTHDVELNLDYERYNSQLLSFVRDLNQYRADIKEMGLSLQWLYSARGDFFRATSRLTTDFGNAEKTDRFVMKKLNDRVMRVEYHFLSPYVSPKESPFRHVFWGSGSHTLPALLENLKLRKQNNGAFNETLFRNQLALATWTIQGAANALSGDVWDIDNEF

hCD71 [1]	hCD71:HSA [2]	Binder	IC50, SKBR-3 viability, MMAF conjugate, second unlabelled column (+/- human transferrin) [3] [nM]	IC50, SKBR-3 viability, MMAF conjugate, first unlabelled column (+/- human transferrin) [3] [nM]
2.81e+06	237	SEQ ID NO 290 (designed binder, FN3 domain) MLPAPKNLVVSRVTEDSARLSWTAPDAAFDSFFYLEQAWGGEAIVLTVPGSERSYDLTGLKPGTEYWVEITGVKGGYASSPLSAIFTT		
660000	55	SEQ ID NO 301 (designed binder, FN3 domain) MLPAPKNLVVSRVTEDSARLSWTAPDAAFDSFEIEYDEPYRGGEAIVLTVPGSERSYDLTSLKPGTEYPVSIGGVKGGITSDPLSAIFTT		
1.27e+06	118	SEQ ID NO 286 (designed binder, FN3 domain) MLPAPKNLVVSRVTEDSARLSWTAPDAAFDSFNIYYPEFPVRGEAIVLTVPGSERSYDLTGLKPGTEYVVSIWGVKGGTQSWPLSAIFTT		
4.27e+06	1940	SEQ ID NO 299 (designed binder, FN3 domain) MLPAPKNLVVSRVTEDSARLSWTAPDAAFDSFLIEYWESVGYGEAIVLTVPGSERSYDLTGLKPGTEYWVGIYGVKGGYYSRPLSAIFTT		
3.11e+06	598	SEQ ID NO 277 (designed binder, FN3 domain) MLPAPKNLVVSRVTEDSARLSWTAPDAAFDSFWINYYEGIGEGEAIVLTVPGSERSYDLTGLKPGTEYYVDISGVKGGSYSLPLSAIFTT		
1.44e+06	174	SEQ ID NO 294 (designed binder, FN3 domain) MLPAPKNLVVSRVTEDSARLSWTAPDAAFDSFSIIYSEWNVTGEAIVLTVPGSERSYDLTGLKPGTEYDVWIEGVKGGGMSKPLSAISTT		
1.07e+06	48	SEQ ID NO 281 (designed binder, FN3 domain) MLPAPKNLVVSRVTEDSARLSWTAPDAAFDSFYIDYDEIHDWGEAIVLTVPGSERSYDLTGLKPGTEYAVQIGGVKGGSFSWTLSAIFTT		
2.62e+06	296	SEQ ID NO 292 (designed binder, FN3 domain) MLPAPKNLVVSRVTEDSARLSWTAPDAAFDSFDIAYWELTPSGEAIELLVPGSERSYDLTGLKPGTEYRVDIIGVKGGFISEPLGATFTT		
609000	50	SEQ ID NO 308 (designed binder, FN3 domain) MLPAPKNLVVSEVTEDSARLSWQGVARAFDSFLITYREQIFAGEVIVLTVPGSERSYDLTGLKPGTEYPVWIQGVKGGSPSAPLSAISTT		
3.83e+06	1780	SEQ ID NO 291 (designed binder, FN3 domain) MLPAPKNLVVSRVTEDSARLSWTAPDAAFDSFHIEYEEPETEGEAIYLHVPGSERSYDLTGLKPGTEYKVLIRGVKGGSYSIPLQAPFTT		
2.59e+06	49	SEQ ID NO 297 (designed binder, FN3 domain) MLPAPKNLVVSRVTEDSARLSWTAPDAAFDSFLIPYAETSPSGEAITLFVPGSERSYDLTGLKPGTEYNVVIQGVKGGRPSNPLVAASTT		
3.14e+06	1100	SEQ ID NO 309 (designed binder, FN3 domain) MLPAPKNLVVSRVTEDSARLSWTAPDAAFDSFIIDYLELDQEGEAIVLTVPGSERSYDLTGLKPGTEYAVYIFGVKGGYPSTPLSAIFTT		

More lines, now with the values behind:

Binder	hCD71 [1]	hCD71:HSA [2]	IC50, SKBR-3 viability, MMAF conjugate, second unlabelled column (+/- human transferrin) [3] [nM]	IC50, SKBR-3 viability, MMAF conjugate, first unlabelled column (+/- human transferrin) [3] [nM]
SEQ ID NO 274 (designed binder, FN3 domain) MLPAPKNLVVSRVTEDSVRLSWTAPDAAFDSFAISYEEWWVHGEAIVLTVPGSERSYDLTGLKPGTEYSVVIPGVKGGLYSWTLSAISTT	522000	44		
SEQ ID NO 85 (designed binder, FN3 domain) MLPAPKNLVVSRVTEDSARLSWTAPDAAFDSFFIWYWEKSVDGEAIVLTVPGSERSYDLTGLKPGTEYNVGIQGVKGGTPSDPLSAIFTT	2.91e+06	1160	89	
SEQ ID NO 149 (designed binder, FN3 domain) MLPAPKNLVVSRVTEDSARLSWTAPDAAFDSFIIPYAEVRPDGEAIVLTVPGSERSYDLTGLKPGTEYSVLIHGVKGGKLSEPLSAIFTT	2.77e+06	826	5.5	9.7
SEQ ID NO 136 (designed binder, FN3 domain) MLPAPKNLVVSRVTEDSARLSWTAPDAAFDSFFIYYIESYPAGEAIVLTVPGSERSYDLTGLKPGTEYWMGIDGVKGGRWSTPLSAIFTT	4.03e+06	706	0.503	2.32
SEQ ID NO 152 (designed binder, FN3 domain) MLPAPKNLVVSRVTEDSARLSWTAPDAAFDSFFIGYLEPQPPGEAIVLTVPGSERSYDLTGLKPGTEYNVTIQGVKGGFPSSPLSAIFTT	2.83e+06	534	5.24	19.6
SEQ ID NO 174 (designed binder, FN3 domain) MLPAPKNLVVSRVTEDSARLSWTAPDAAFDSFFIGYLEPQPPGEAIVLTVPGSERSYDLTGLKPGTEYKVVIQGVKGGTPSEPLSAIFTT	2.42e+06	1100	158	
SEQ ID NO 146 (designed binder, FN3 domain) MLPAPKNLVVSRVTEDSARLSWTAPDAAFDSFYIAYAEPRPDGEAIVLTVPGSERSYDLTGLKPGTEYSVLIHGVKGGLLSSPLSAIFTT	3.07e+06	809	3.46	7.13
SEQ ID NO 164 (designed binder, FN3 domain) MLPAPKNLVVSRVTEDSARLSWTAPDAAFDSFLIPYAETSPSGEAIVLTVPGSERSYDLTGLKPGTEYSVLIHGVKGGHLSDPLSAIFTT	2.6e+06	2370	55.8	18.7
SEQ ID NO 96 (designed binder) MLPAPKNLVVSRVTEDSARLSWTAPDAAFDSFFIGYLEPQPPGEAIVLTVPGSERSYDLTGLKPGTEYNVTIQGVKGGFPSMPLSAIFTT			27	79.5
SEQ ID NO 168 (designed binder, FN3 domain) MLPAPKNLVVSRVTEDSARLSWTTPDAAFDSFFIGYLEPYPPGEAIVLTVPGSERSYDLTGLKPGTEYVVSIQGVKGGKPSDPLSAIFTT	2.9e+06	1480	7.2	32
SEQ ID NO 284 (designed binder) MLPAPKNLVVSRVTEDSARLSWTAPDAAFDSFFIGYLEPQPPGEAIVLTVPGSERSYDLTGLKPGTEYNVTIQGVKGGFPSMPLSAIFTT			32	98
SEQ ID NO 269 (designed binder, FN3 domain) MLPAPKNLVVSRVTEDSARLSWTAPDAAFDSFHINYAEVYTKGEAILLTVPGSERSYDLTGLKPGTEYEVYIPGVKGGPFSRPLNAQFTT	690000	166		
SEQ ID NO 249 (designed binder, FN3 domain) MLPAPKNLVVSRVTEDSARLSWTAPDAAFDSFSIDYFESVGFGEAIVLTVPGSERSYDLTGLKPGTEYDVQITGVKGGPHSLPLSAIFTT	1.05e+06	148		
SEQ ID NO 83 (designed binder, FN3 domain) MLPAPKNLVVSRVTEDSARLSWTAPDAAFDSFYIYYYESSGTGEAIVLTVPGSERSYDLTGLKPGTEYFVDIGGVKGGSYSLPLSAIFTT	1.93e+06	1480		
SEQ ID NO 253 (designed binder, FN3 domain) MLPAPKNLVVSRVTEDSARLSWTAPDAAFDSFTIEYWETIGGGEAIVLTVPGSERSYDLTGLKPGTEYYVGIYGVKGGWWSRPLSAIFTT	2.8e+06	1140		
SEQ ID NO 248 (designed binder, FN3 domain) MGSLPAPKNLVVSRVTEDSARLSWTAPDAAFDSFAIPYAEPSPTGEAIVLTVPGSERSYDLTGLKPGTEYPVWIQGVKGGSPSAPLSAEFTT	832000	55		
SEQ ID NO 273 (designed binder, FN3 domain) MLPAPKNLVVSRVTEDSARLSWTAPDAAFDSFTIFKDGEAIVLTVPGSERSYDLTGLKPGTEYYVYIYGVKGGYPSKPLSAIFTT	4.65e+06	508		
SEQ ID NO 260 (designed binder, FN3 domain) MLPAPKNLVVSRVTEDSARLSWTAPDAAFDSFNISYYEYFVHGEAIVLTVPGSERSYDLTGLKPGTEYYVIDGVKGGDPSEPLSAIFTT	1.3e+06	90		
SEQ ID NO 266 (designed binder, FN3 domain) MLPAPKNLVVSRVTEDSARLSWTAPDAAFDSFMIRYQEGTRWGEAIVLTVPGSERSYDLTGLKPGTEYIVMIAGVKGGQISLPLSAIFTT	894000	337		
SEQ ID NO 270 (designed binder, FN3 domain) MLPAPKNLVVSRVTEDSARLSWTAPDAAFDSFLIRYQEWQRWGEAIVLTVPGSERSYDLTGLKPGTEYTVHIAGVKGGMLSLPLSAIFTT	1.81e+06	754		

Reference: US20210145976A1 (ARO BIOTHERAPEUTICS, published 2021)
